Here are results for four substances from patent US6641809.

Experiment [1] has as its target B7 antigen (human) (UniProt P33681). The experiment is described as follows: cell-based or functional assay.
For experiment [2] the target is unchanged. As to the kind of experiment: flow cytometry, 5E1 cells; (- cold) minus (+ cold).
The target is the same in experiment [3]. The experiment is described as follows: flow cytometry, T51 cells; (- cold) minus (+ cold).
The target is the same in experiment [4]. The experiment is described as follows: flow cytometry, Raji cells; (- cold) minus (+ cold). In general terms: A flow cytometer gives signals particle by particle.
The target is the same in experiment [5]. The experiment is described as follows: flow cytometry, Daudi cells; (- cold) minus (+ cold).
The target is the same in experiment [6]. As to the kind of experiment: flow cytometry, Jijoye cells; (- cold) minus (+ cold).
Experiment [7] shares this target. The experiment is described as follows: flow cytometry, 1A2 cells preincubated with unlabeled BB-1.
Experiment [8] has the same target. The experiment is described as follows: flow cytometry, 5E1 cells preincubated with unlabeled BB-1.
Experiment [9] has the same target. As to the kind of experiment: flow cytometry, CEM cells preincubated with unlabeled BB-1.
For experiment [10] the target is unchanged. As to the kind of experiment: flow cytometry, T51 cells preincubated with unlabeled BB-1.
For experiment [11] the target is unchanged. As to the kind of experiment: flow cytometry, HL60 cells preincubated with unlabeled BB-1.
Experiment [12] shares this target. The experiment is described as follows: flow cytometry, HSB2 cells preincubated with unlabeled BB-1.
Experiment [13] shares this target. As to the kind of experiment: flow cytometry, Raji cells preincubated with unlabeled BB-1.
Experiment [14] shares this target. As to the kind of experiment: flow cytometry, Daudi cells preincubated with unlabeled BB-1.
Experiment [15] shares this target. The experiment is described as follows: flow cytometry, THP-1 cells preincubated with unlabeled BB-1.
Experiment [16] shares this target. As to the kind of experiment: flow cytometry, Jijoye cells preincubated with unlabeled BB-1.
Experiment [17] shares this target. The experiment is described as follows: adhesion of T51 cells to CD28+ CHO cells, screen of a mAb panel.
For experiment [18] the target is unchanged. The experiment is described as follows: flow cytometry, direct staining of Raji cells (BL, positive for CD28 adhesion).
For experiment [19] the target is unchanged. As to the kind of experiment: adhesion of Jijoye cells to CD28+ CHO cells in 10 mM EDTA, BB-1 below 1 µg/ml.
Experiment [20] has the same target. As to the kind of experiment: flow cytometry, direct staining of Daudi cells (BL, positive for CD28 adhesion).
Experiment [21] shares this target. As to the kind of experiment: flow cytometry, direct staining of 5E1 cells (B-LCL, positive for CD28 adhesion).
Experiment [22] has the same target. As to the kind of experiment: flow cytometry, direct staining of Jijoye cells (BL, positive for CD28 adhesion).
For experiment [23] the target is unchanged. The experiment is described as follows: flow cytometry, direct staining of T51 cells (B-LCL, positive for CD28 adhesion).
For experiment [24] the target is unchanged. As to the kind of experiment: flow cytometry, Namalwa cells (negative for CD28 adhesion); (- cold) minus (+ cold).
The target is the same in experiment [25]. As to the kind of experiment: flow cytometry, direct staining of HL60 cells (AML, negative for CD28 adhesion; presence of B7 not shown).
Experiment [26] has the same target. As to the kind of experiment: flow cytometry, direct staining of 1A2 cells (B-LCL, negative for CD28 adhesion; presence of B7 not shown).
Experiment [27] shares this target. As to the kind of experiment: flow cytometry, direct staining of THP-1 cells (AML, negative for CD28 adhesion; presence of B7 not shown).
For experiment [28] the target is unchanged. The experiment is described as follows: flow cytometry, direct staining of HSB2 cells (T-ALL, negative for CD28 adhesion; presence of B7 not shown).
For experiment [29] the target is unchanged. The experiment is described as follows: flow cytometry, direct staining of Namalwa cells (BL, negative for CD28 adhesion; presence of B7 not shown).
Experiment [30] deals with CD28 receptor (human) (UniProt P10747). As to the kind of experiment: cell-based or functional assay.
The target is the same in experiment [31]. The experiment is described as follows: adhesion of B7-transfected COS cells to CD28+ CHO cells, EDTA omitted.
The target is the same in experiment [32]. The experiment is described as follows: adhesion of T51 cells to CD28+ CHO cells, mAb 9.3 at 10 µg/ml plus EDTA.
Experiment [33] shares this target. The experiment is described as follows: inhibition of adhesion of PM lymphoblastoid cells to CD28+ CHO monolayers.
For experiment [34] the target is unchanged. The experiment is described as follows: adhesion of T51 cells to CD28+ CHO cells, mAb 9.3 at 10 µg/ml without EDTA.

Sequence of B7 antigen (human) (P33681 35-288): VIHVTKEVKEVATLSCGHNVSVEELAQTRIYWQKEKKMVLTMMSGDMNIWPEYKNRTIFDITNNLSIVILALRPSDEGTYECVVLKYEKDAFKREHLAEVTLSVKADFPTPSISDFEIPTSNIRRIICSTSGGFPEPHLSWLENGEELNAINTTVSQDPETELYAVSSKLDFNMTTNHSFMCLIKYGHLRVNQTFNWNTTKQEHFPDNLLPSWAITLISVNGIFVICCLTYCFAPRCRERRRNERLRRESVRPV

Substance mAb BB-1 (anti-B7) (antibody) yielded a [3H]-T incorporation, PHA blasts stimulated with B7+ CHO (40:1), with BB-1 at 10 µg/ml with B7 antigen (human) [1] of 98300 cpm. Moreover, the SPECIFIC BINDING (mean fluorescence, linear units) in the experiment with B7 antigen (human) [2] stood at 10.6 linear units; with B7 antigen (human) [3], 13.4 linear units; in the experiment with B7 antigen (human) [4], 4.3 linear units; with B7 antigen (human) [5], 3.6 linear units; with B7 antigen (human) [6], 15 linear units; with B7 antigen (human) [24], 1.6 linear units. The mean fluorescence (linear units), + COLD with B7 antigen (human) [7] is 4.3 linear units; in the experiment with B7 antigen (human) [8] it was 2.4 linear units; with B7 antigen (human) [9], 1.9 linear units; in the experiment with B7 antigen (human) [10] it was 3 linear units; with B7 antigen (human) [11], 3.1 linear units; with B7 antigen (human) [12] it was 2.3 linear units. In addition, the mean fluorescence (linear units), + COLD with B7 antigen (human) [13] worked out at 2.8 linear units; with B7 antigen (human) [14] it was 2.8 linear units; with B7 antigen (human) [15], 3 linear units; in the experiment with B7 antigen (human) [16], 2.8 linear units. The percent of CD28-mediated adhesion blocked with B7 antigen (human) [17] is over 30%. Moreover, the mean fluorescence (linear units), - COLD with B7 antigen (human) [18] came out at 7.1 linear units; with B7 antigen (human) [20], 6.4 linear units; in the experiment with B7 antigen (human) [21], 13 linear units; with B7 antigen (human) [22], 17.8 linear units; in the experiment with B7 antigen (human) [23], 16.4 linear units; with B7 antigen (human) [25], 3.1 linear units. Besides, the mean fluorescence (linear units), - COLD with B7 antigen (human) [26] was determined as 4.5 linear units; with B7 antigen (human) [27], 3.1 linear units; in the experiment with B7 antigen (human) [28], 2.3 linear units; with B7 antigen (human) [29], 3.8 linear units. For the same substance, in the experiment with B7 antigen (human) [19], the percent of adhesion blocked was 60%.

As to “B7Ig fusion protein (from UniProt P33681 35-215; P01857 99-330) (Fc fusion)”, in the experiment with CD28 receptor (human) [30], the [3H]-T incorporation, PBL, + Anti-CD3, B7Ig (immob.), Exp. 1 is 174000 cpm and the [3H]-T incorporation, PBL, - Anti-CD3, B7Ig (immob.), Exp. 1 is 100 cpm.

Usually IC50 stands for the midpoint of a concentration-inhibition curve. High values mean a need for much substance, low ones inhibition by little substance. Turning to “Monoclonal antibody (mAb) 9.3 (anti-CD28)”, in the experiment with CD28 receptor (human) [30], the [3H]-T incorporation, PBL, + Anti-CD3, mAb 9.3 (immob.), Exp. 1 is 137000 cpm; the [3H]-T incorporation, PBL, + Anti-CD3, mAb 9.3 (soln.), Exp. 1 was found to be 156000 cpm; the [3H]-T incorporation, PBL, + Anti-CD3, mAb 9.3 (soln.), Exp. 2 came out at 75800 cpm; the [3H]-T incorporation, PBL, - Anti-CD3, mAb 9.3 (immob.), Exp. 1 is 100 cpm. In the experiment with CD28 receptor (human) [30], the [3H]-T incorporation, PBL, - Anti-CD3, mAb 9.3 (soln.), Exp. 1 was determined as 300 cpm and the [3H]-T incorporation, PBL, - Anti-CD3, mAb 9.3 (soln.), Exp. 2 came to 400 cpm. This substance also gave a percent of adhesion blocked with CD28 receptor (human) [31] of 40%. Also, the percent reduction of adhesion with CD28 receptor (human) [32] came to 93%. In the experiment with CD28 receptor (human) [33], the IC50 stood at 10 nM. In the experiment with CD28 receptor (human) [34], the percent reduction of adhesion turned out to be 62%.

Turning to mAb 9.3 (Fab fragments), the [3H]-T incorporation, PHA blasts stimulated with B7+ CHO (40:1), with 9.3 Fab at 10 µg/ml in the experiment with CD28 receptor (human) [30] stood at 132000 cpm.
